The values that follow come from the supplement of paper PMC10598134.

± gives the standard deviation.

The nature of the series: collision cross section of modified peptide (TIMS, N2, iRT-aligned); higher = larger / more extended gas-phase ion. The essentials:
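Values are averages of 1–3 technical replicates of the most abundant feature for each charge state. Collision cross section was obtained from the Mason-Schamp equation after 1/K0 calibration with three reference ions and run-wise alignment to the median iRT peptide deviation. Synthetic peptide pools (iRT standard spiked 1:40) were separated on a 120-min nanoflow C18 gradient at 60 °C, analysed on a timsTOF Pro/HT (dda-PASEF, nitrogen, ~2.4 mbar) and identified with MaxQuant.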

Where [1] appears, read: charge state: 2, modification: Propionyl.
The mark [2] stands for this setting: charge state: 2, modification: Succinyl.
The mark [3] stands for this setting: charge state: 3, modification: Succinyl.
The mark [4] stands for this setting: charge state: 2, modification: Trimethyl (K).
[5] abbreviates: charge state: 3, modification: Trimethyl (K).
[6] abbreviates: charge state: 2, modification: hydroxyisobutyryl.
Setting [7] is: charge state: 2, modification: Acetyl (K).
Setting [8] is: charge state: 3, modification: Acetyl (K).
[9] abbreviates: charge state: 3, modification: Biotin.
[10] abbreviates: charge state: 2, modification: Butyryl.
Where [11] appears, read: charge state: 3, modification: Butyryl.
Where [12] appears, read: charge state: 2, modification: Crotonyl.
[13] abbreviates: charge state: 3, modification: Crotonyl.
[14] abbreviates: charge state: 3, modification: Dimethyl (K).
The mark [15] stands for this setting: charge state: 2, modification: Formyl.
[16] abbreviates: charge state: 3, modification: Formyl.
Setting [17] is: charge state: 2, modification: Glutarylation.
Where [18] appears, read: charge state: 3, modification: Glutarylation.
[19] abbreviates: charge state: 2, modification: GlyGly (K).
Where [20] appears, read: charge state: 3, modification: GlyGly (K).
Setting [21] is: charge state: 3, modification: Malonyl.
[22] abbreviates: charge state: 2, modification: Methyl (K).
The mark [23] stands for this setting: charge state: 3, modification: Methyl (K).
Setting [24] is: charge state: 3, modification: hydroxyisobutyryl.
The mark [25] stands for this setting: charge state: 2, modification: Biotin.
Where [26] appears, read: charge state: 2, modification: Nitro (Y).

In the case of ITGKNQVTATK [_ITGK(Propionyl)NQVTATK_], the collision cross section under setting [1] is 368.3 ± 0.65 Å².

Turning to ITGKNQVTATK [_ITGK(Succinyl)NQVTATK_], the collision cross section amounted to 364.93 ± 0.74 Å² under setting [2] and 446.25 Å² under setting [3].

As for “ITGKNQVTATK [_ITGK(Trimethyl (K))NQVTATK_]”, the collision cross section by setting is: under setting [4], 375.05 ± 1.7 Å²; under setting [5], 426.22 Å².

In turn, “ITGKNQVTATK [_ITGK(hydroxyisobutyryl)NQVTATK_]” registered a collision cross section under setting [6] of 372.92 ± 1.4 Å².

For “ITLSKHQNVQLPR [_ITLSK(Acetyl (K))HQNVQLPR_]”, the collision cross section is 436.23 ± 3.2 Å² under setting [7] and 526.67 ± 2.1 Å² under setting [8].

Sequence ITLSKHQNVQLPR [_ITLSK(Biotin)HQNVQLPR_] returned a collision cross section under setting [9] of 502.67 Å².

As to “ITLSKHQNVQLPR [_ITLSK(Butyryl)HQNVQLPR_]”, the collision cross section is on record as 443.37 ± 0.53 Å² under setting [10] and 503.02 ± 28 Å² under setting [11].

In the case of “ITLSKHQNVQLPR [_ITLSK(Crotonyl)HQNVQLPR_]”, the collision cross section is, setting by setting: under setting [12], 443.04 ± 1.2 Å²; under setting [13], 519.02 ± 26 Å².

As to “ITLSKHQNVQLPR [_ITLSK(Dimethyl (K))HQNVQLPR_]”, under setting [14], the collision cross section is recorded as 489.75 ± 1.2 Å².

Consider ITLSKHQNVQLPR [_ITLSK(Formyl)HQNVQLPR_], for which the collision cross section under setting [15] is given as 435.58 ± 0.72 Å² and the collision cross section under setting [16] is 504.15 ± 24 Å².

Consider “ITLSKHQNVQLPR [_ITLSK(Gluratylation)HQNVQLPR_]”, for which the collision cross section was determined as 422.98 ± 0.48 Å² under setting [17] and 526.02 ± 27 Å² under setting [18].

Turning to “ITLSKHQNVQLPR [_ITLSK(GlyGly (K))HQNVQLPR_]”, the collision cross section reads like this: under setting [19], 441.27 Å²; under setting [20], 493.46 ± 2 Å².

The sequence “ITLSKHQNVQLPR [_ITLSK(Malonyl)HQNVQLPR_]” yielded a collision cross section under setting [21] of 478.94 ± 1.8 Å².

With “ITLSKHQNVQLPR [_ITLSK(Methyl (K))HQNVQLPR_]”, the collision cross section is, setting by setting: under setting [22], 432.38 Å²; under setting [23], 510.25 ± 21 Å².

The sequence “ITLSKHQNVQLPR [_ITLSK(Succinyl)HQNVQLPR_]” returned a collision cross section under setting [2] of 418.56 ± 0.53 Å² and a collision cross section under setting [3] of 485.89 ± 2 Å².

“ITLSKHQNVQLPR [_ITLSK(Trimethyl (K))HQNVQLPR_]” registered a collision cross section under setting [5] of 492.22 ± 3.3 Å².

Consider “ITLSKHQNVQLPR [_ITLSK(hydroxyisobutyryl)HQNVQLPR_]”, for which the collision cross section is given as 443.83 ± 0.038 Å² under setting [6] and 520.86 ± 27 Å² under setting [24].

With “IVEKYGYTHLSAGELLR [_IVEK(Acetyl (K))YGYTHLSAGELLR_]”, the collision cross section under setting [8] is 562.4 ± 1.8 Å².

The sequence “IVEKYGYTHLSAGELLR [_IVEK(Dimethyl (K))YGYTHLSAGELLR_]” displayed a collision cross section under setting [14] of 550.8 Å².

Turning to “IVEKYGYTHLSAGELLR [_IVEK(Gluratylation)YGYTHLSAGELLR_]”, under setting [18], the collision cross section is 567.6 ± 0.21 Å².

“IVEKYGYTHLSAGELLR [_IVEK(GlyGly (K))YGYTHLSAGELLR_]” yielded a collision cross section under setting [20] of 548.84 ± 0.37 Å².

Under setting [23], “IVEKYGYTHLSAGELLR [_IVEK(Methyl (K))YGYTHLSAGELLR_]” gave a collision cross section of 548.39 ± 0.79 Å².

“IVEKYGYTHLSAGELLR [_IVEK(Succinyl)YGYTHLSAGELLR_]”: the collision cross section by setting is: under setting [2], 498.62 ± 0.45 Å²; under setting [3], 565.13 ± 1.1 Å².

Under setting [5], “IVEKYGYTHLSAGELLR [_IVEK(Trimethyl (K))YGYTHLSAGELLR_]” displayed a collision cross section of 554.1 ± 0.025 Å².

Regarding “IVFSGNLFQHQEDSKK [_IVFSGNLFQHQEDSK(Acetyl (K))K_]”, the collision cross section came to 495.37 ± 4.2 Å² under setting [7] and 536.07 ± 1.1 Å² under setting [8].

Sequence “IVFSGNLFQHQEDSKK [_IVFSGNLFQHQEDSK(Butyryl)K_]” yielded a collision cross section under setting [10] of 504.05 ± 1 Å² and a collision cross section under setting [11] of 542.63 ± 1.2 Å².

For the sequence “IVFSGNLFQHQEDSKK [_IVFSGNLFQHQEDSK(Crotonyl)K_]”, the collision cross section was 503.03 ± 1.1 Å² under setting [12] and 539.53 ± 1.2 Å² under setting [13].

With “IVFSGNLFQHQEDSKK [_IVFSGNLFQHQEDSK(Dimethyl (K))K_]”, the collision cross section under setting [14] is reported as 532.16 ± 0.77 Å².

As to “IVFSGNLFQHQEDSKK [_IVFSGNLFQHQEDSK(Formyl)K_]”, the collision cross section under setting [15] came out at 496.72 ± 1.3 Å² and the collision cross section under setting [16] was 530.13 ± 1.3 Å².

Take “IVFSGNLFQHQEDSKK [_IVFSGNLFQHQEDSK(Gluratylation)K_]”: the collision cross section stood at 499.16 ± 1.4 Å² under setting [17] and 531.31 ± 9.1 Å² under setting [18].

On to “IVFSGNLFQHQEDSKK [_IVFSGNLFQHQEDSK(GlyGly (K))K_]”, for which the collision cross section runs as follows: under setting [19], 491.77 Å²; under setting [20], 544.77 ± 1.6 Å².

Take “IVFSGNLFQHQEDSKK [_IVFSGNLFQHQEDSK(Methyl (K))K_]”: the collision cross section under setting [22] was determined as 490.37 Å² and the collision cross section under setting [23] is on record as 529.21 ± 1.6 Å².

With “IVFSGNLFQHQEDSKK [_IVFSGNLFQHQEDSK(Succinyl)K_]”, the collision cross section under setting [2] came out at 493.41 ± 1 Å² and the collision cross section under setting [3] is listed as 524.55 ± 2 Å².

Consider “IVFSGNLFQHQEDSKK [_IVFSGNLFQHQEDSK(Trimethyl (K))K_]”, for which the collision cross section under setting [5] was determined as 536.81 ± 0.89 Å².

For “IVFSGNLFQHQEDSKK [_IVFSGNLFQHQEDSK(hydroxyisobutyryl)K_]”, the collision cross section by setting is: under setting [6], 503.66 ± 0.71 Å²; under setting [24], 534.25 ± 1.1 Å².

Turning to IVNVSLADLR [_IVNVS(HexNAc (ST))LADLR_], under “charge state: 2, modification: HexNAc (ST)”, the collision cross section was 388.29 ± 1.2 Å².

As to “IVSGKDYNVTANSK [_IVSGK(Acetyl (K))DYNVTANSK_]”, the collision cross section under setting [7] turned out to be 408.96 ± 0.54 Å².

In turn, “IVSGKDYNVTANSK [_IVSGK(Biotin)DYNVTANSK_]” yielded a collision cross section under setting [25] of 432.72 ± 2.7 Å² and a collision cross section under setting [9] of 508.73 Å².

For “IVSGKDYNVTANSK [_IVSGK(Butyryl)DYNVTANSK_]”, under setting [10], the collision cross section was found to be 419.09 ± 2.9 Å².

Under setting [12], “IVSGKDYNVTANSK [_IVSGK(Crotonyl)DYNVTANSK_]” displayed a collision cross section of 415.26 ± 1.1 Å².

For “IVSGKDYNVTANSK [_IVSGK(Dimethyl (K))DYNVTANSK_]”, the collision cross section came to 404.57 ± 0.47 Å² (charge state: 2, modification: Dimethyl (K)) and 462.9 ± 1.6 Å² under setting [14].

Under setting [15], “IVSGKDYNVTANSK [_IVSGK(Formyl)DYNVTANSK_]” yielded a collision cross section of 405.86 ± 0.56 Å².

Sequence “IVSGKDYNVTANSK [_IVSGK(Gluratylation)DYNVTANSK_]” returned a collision cross section under setting [17] of 417.68 ± 1.5 Å² and a collision cross section under setting [18] of 473.57 ± 2.4 Å².

Turning to “IVSGKDYNVTANSK [_IVSGK(GlyGly (K))DYNVTANSK_]”, the collision cross section amounted to 423.62 ± 2 Å² under setting [19] and 476.53 ± 2.2 Å² under setting [20].

With “IVSGKDYNVTANSK [_IVSGK(Malonyl)DYNVTANSK_]”, the collision cross section (charge state: 2, modification: Malonyl) was found to be 407.96 ± 0.037 Å² and the collision cross section under setting [21] was determined as 465.84 ± 1.8 Å².

In turn, “IVSGKDYNVTANSK [_IVSGK(Methyl (K))DYNVTANSK_]” registered a collision cross section under setting [22] of 411.95 ± 2 Å² and a collision cross section under setting [23] of 471.19 ± 3.6 Å².

In turn, “IVSGKDYNVTANSK [_IVSGK(Propionyl)DYNVTANSK_]” came in with a collision cross section under setting [1] of 411.4 ± 0.64 Å².

Consider “IVSGKDYNVTANSK [_IVSGK(Succinyl)DYNVTANSK_]”, for which the collision cross section under setting [2] is 411.09 ± 0.54 Å².

With “IVSGKDYNVTANSK [_IVSGK(Trimethyl (K))DYNVTANSK_]”, the collision cross section runs as follows: under setting [4], 419.62 ± 1.6 Å²; under setting [5], 475.29 ± 2.4 Å².

For “IVSGKDYNVTANSK [_IVSGK(hydroxyisobutyryl)DYNVTANSK_]”, the collision cross section is, setting by setting: under setting [6], 417.55 ± 0.55 Å²; under setting [24], 466.6 ± 0.46 Å².

In the case of “IYELAAGGTAVGTGLNTR [_IY(Nitro (Y))ELAAGGTAVGTGLNTR_]”, under setting [26], the collision cross section came out at 447.13 ± 1.1 Å².

In the case of IYHPNVDK [_IY(Nitro (Y))HPNVDK_], the collision cross section under setting [26] stood at 340.06 ± 0.72 Å² and the collision cross section (charge state: 3, modification: Nitro (Y)) stood at 427.49 ± 0.064 Å².

The sequence IYHPNVDK [_IY(Phospho (Y))HPNVDK_] yielded a collision cross section (charge state: 2, modification: Phospho (Y)) of 353.97 ± 0.065 Å² and a collision cross section (charge state: 3, modification: Phospho (Y)) of 437.48 Å².

“KDYQPGITFIVVQK [_KDYQP(Hydroxyproline)GITFIVVQK_]” gave a collision cross section (charge state: 3, modification: Hydroxyproline) of 502.4 Å².

As to KFGVLSDNFK [_K(Acetyl (K))FGVLSDNFK_], under setting [7], the collision cross section stood at 370.76 ± 0.46 Å².

Under setting [25], KFGVLSDNFK [_K(Biotin)FGVLSDNFK_] returned a collision cross section of 394.71 ± 3.8 Å².

In the case of KFGVLSDNFK [_K(Butyryl)FGVLSDNFK_], under setting [10], the collision cross section is given as 377.44 ± 0.84 Å².

As for KFGVLSDNFK [_K(Crotonyl)FGVLSDNFK_], the collision cross section under setting [12] was determined as 376.47 ± 0.8 Å².
